Switch fluorescence ratio data for 120 sequences are collected here from the supplement of paper PMC10126150.

The data set has as its system ATP. Nature of the data set: switch fluorescence ratio, 500 uM ATP over buffer (Cy3 cluster intensity, sum of 5 cycles each) (fold (ratio)); higher = stronger signal-on switching upon ATP binding; sequences stand for … in TCGTCGGCAGCGTCAGATGTGTATAAGAGACAGTTTTTTTTTTTTTTTTTTTTTTTTT…TC. The settings on record: aptamer strand: ATP DNA aptamer (quencher-CACCTGGGGGAGTATTGCGGAGGAAGG + anchor), 100 nM annealed; ATP concentration: 500 uM. The method, boiled down: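 After annealing to 100 nM quencher-labelled ATP aptamer, Cy3-labelled switching-strand clusters on a modified Illumina MiSeq flow-cell were imaged in selection buffer. A second image followed after 15 min with 500 uM ATP at 22 °C, and five such buffer/ATP cycles were done, each separated by NaOH stripping and re-annealing. The fluorescence ratio, averaged per switch-domain sequence, is summed target-cycle over summed buffer-cycle Cy3 intensity per cluster, with clusters outside 100-1000 RFU excluded.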

± gives the standard deviation of the averaged measurements.
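Further: ATP exposure 15 min at 22 °C before imaging.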

With TACCCAGGGA, the switch fluorescence ratio was 1.64 ± 0.13.

AAAGGTGGGC: the switch fluorescence ratio turned out to be 0.98 ± 0.039.

As to GCGTCAGGGT, the switch fluorescence ratio stood at 0.973 ± 0.027.

As for GCTTAAGGGG, the switch fluorescence ratio amounted to 0.989 ± 0.029.

For the sequence ATTGCCCGCG, the switch fluorescence ratio was determined as 1.0228 ± 0.00058.

ATTTATCGCA: the switch fluorescence ratio was found to be 1.011 ± 0.0041.

As for AGTTTGTGGG, the switch fluorescence ratio was 0.984 ± 0.0025.

Regarding TTACGTGAGG, the switch fluorescence ratio was 1.02 ± 0.045.

For TCATGTAAGT, the switch fluorescence ratio was found to be 0.997 ± 0.02.

For the sequence AAGGAAATTA, the switch fluorescence ratio stood at 1.01 ± 0.058.

Turning to TCGCCATTGT, the switch fluorescence ratio is 1.02 ± 0.03.

As to AAGGTTGAGG, the switch fluorescence ratio came out at 0.973 ± 0.034.

Take GTGTGAAGGT: the switch fluorescence ratio was 0.991 ± 0.032.

Consider CTACGGGGTG, for which the switch fluorescence ratio turned out to be 1.01 ± 0.046.

Regarding GGTGTGGGCA, the switch fluorescence ratio was determined as 0.998 ± 0.041.

For TAAGGGAGGT, the switch fluorescence ratio turned out to be 0.996 ± 0.044.

As for AAATTTGGCT, the switch fluorescence ratio was found to be 0.992 ± 0.071.

In the case of GTTGGTGTGT, the switch fluorescence ratio worked out at 0.9667 ± 0.0071.

ACGAAAATTA: the switch fluorescence ratio was found to be 1.12 ± 0.14.

For the sequence TTAATAGTGA, the switch fluorescence ratio came to 0.973 ± 0.021.

Consider CGGGGGACCG, for which the switch fluorescence ratio was 1 ± 0.02.

With TCGGGCCTGT, the switch fluorescence ratio came out at 1 ± 0.034.

In the case of ATAGATAGTG, the switch fluorescence ratio turned out to be 0.959 ± 0.015.

As for TGAATTGTTT, the switch fluorescence ratio worked out at 0.993 ± 0.043.

With TTTCGATCTC, the switch fluorescence ratio is 1.028 ± 0.0026.

Turning to ATTGGGGCTG, the switch fluorescence ratio came to 0.9677 ± 0.006.

On to AATTATCTCG, for which the switch fluorescence ratio was 1.01 ± 0.018.

CCGTTTTTGC: the switch fluorescence ratio came out at 1.14 ± 0.09.

With AGGGAGGAAA, the switch fluorescence ratio is 1 ± 0.036.

As to GCGGGGGCTT, the switch fluorescence ratio is 0.98 ± 0.033.

Take AGGTATTGCT: the switch fluorescence ratio stood at 0.9854 ± 0.0091.

For GATTATTTTT, the switch fluorescence ratio came out at 0.994 ± 0.028.

In the case of TATGGTGC, the switch fluorescence ratio came out at 1.06 ± 0.015.

Regarding GAATCATAGA, the switch fluorescence ratio was 1.004 ± 0.0094.

Turning to GCAGGGGCCC, the switch fluorescence ratio was determined as 1.02 ± 0.027.

As to GTAACATGGG, the switch fluorescence ratio was determined as 0.973 ± 0.021.

Regarding GGGATTATTC, the switch fluorescence ratio was found to be 0.9725 ± 0.0041.

On to GGATCCATAC, for which the switch fluorescence ratio is 1.01 ± 0.014.

As to AAAGACGAT, the switch fluorescence ratio is 1.01 ± 0.017.

As to TCGCCAAATT, the switch fluorescence ratio came out at 1.1 ± 0.21.

Take GGGGGCGCCA: the switch fluorescence ratio is 1.02 ± 0.02.

In the case of CGTATTAGAG, the switch fluorescence ratio turned out to be 1.01 ± 0.048.

As for TAATTCTGGT, the switch fluorescence ratio came out at 0.965 ± 0.025.

Turning to ATAAGGCGAG, the switch fluorescence ratio stood at 0.998 ± 0.025.

For TTTCAATTAA, the switch fluorescence ratio stood at 1 ± 0.013.

Turning to AATATAGAGA, the switch fluorescence ratio was determined as 1.01 ± 0.011.

AATTGGTGAA: the switch fluorescence ratio amounted to 1.01 ± 0.014.

In the case of GGGCAGGGTA, the switch fluorescence ratio came out at 0.9883 ± 0.0076.

Turning to ATTGGGGAT, the switch fluorescence ratio was 1.02 ± 0.018.

Regarding TTTTACGGTA, the switch fluorescence ratio was found to be 1.12 ± 0.022.

GGGGACGGCA: the switch fluorescence ratio turned out to be 1.01 ± 0.046.

For the sequence TTGTAGTTAT, the switch fluorescence ratio is 1.09 ± 0.16.

As for AAAGTTTCCA, the switch fluorescence ratio is 0.993 ± 0.025.

On to TAGTTGAGAA, for which the switch fluorescence ratio was found to be 0.9851 ± 0.0075.

With AACGGGGGAG, the switch fluorescence ratio came to 0.979 ± 0.021.

With CAAGGACGAT, the switch fluorescence ratio is 1.004 ± 0.0015.

Regarding CCGGGGGTTA, the switch fluorescence ratio came out at 1.14 ± 0.23.

Consider TTGGCCATCG, for which the switch fluorescence ratio stood at 0.954 ± 0.039.

As for AAAGCGAGTC, the switch fluorescence ratio is 1.021 ± 0.01.

CTTGGTCCTG: the switch fluorescence ratio is 0.9669 ± 0.007.

As to TAAAGACAGC, the switch fluorescence ratio was 1.006 ± 0.0073.

Regarding TTTCGGTCCC, the switch fluorescence ratio amounted to 1.02 ± 0.021.

Take TTGCTTGGTT: the switch fluorescence ratio was 0.996 ± 0.011.

With GGGTACTTGT, the switch fluorescence ratio came out at 0.999 ± 0.022.

Consider CTCGCAGGCT, for which the switch fluorescence ratio came to 1.25 ± 0.037.

Consider GTCGAGGGAA, for which the switch fluorescence ratio turned out to be 0.995 ± 0.022.

On to CATCTCATAT, for which the switch fluorescence ratio amounted to 1.02 ± 0.028.

On to GATCTTTTTG, for which the switch fluorescence ratio turned out to be 1.02 ± 0.014.

On to AATTTACAGC, for which the switch fluorescence ratio is 1.03 ± 0.042.

As for ACGAGTACGG, the switch fluorescence ratio was determined as 1.1 ± 0.025.

For GCCACAGTAC, the switch fluorescence ratio was 3.04 ± 0.098.

Turning to ATCGGACGGG, the switch fluorescence ratio came to 1.02 ± 0.016.

Turning to ATTGTGGTTT, the switch fluorescence ratio came out at 1.01 ± 0.034.

For the sequence TGAGGGCGGC, the switch fluorescence ratio turned out to be 0.962 ± 0.12.

As to GTTGTATTGT, the switch fluorescence ratio was found to be 0.999 ± 0.019.

For ACCCTTGGGG, the switch fluorescence ratio amounted to 1.02 ± 0.064.

Consider TTTAGACTAG, for which the switch fluorescence ratio amounted to 0.987 ± 0.017.

With ATGGATAAGG, the switch fluorescence ratio was 1.01 ± 0.024.

CCGGGGTGGC: the switch fluorescence ratio was 1.16 ± 0.11.

Consider CTTTAATGCC, for which the switch fluorescence ratio came out at 0.999 ± 0.021.

Take TTAATGTGGA: the switch fluorescence ratio amounted to 0.993 ± 0.046.

Regarding CCGGGGGGAT, the switch fluorescence ratio was found to be 1.55 ± 0.66.

As to TTATTTGCGG, the switch fluorescence ratio is 0.989 ± 0.025.

As for ATATTTCATG, the switch fluorescence ratio is 1.006 ± 0.0091.

As to TGCCTACGGG, the switch fluorescence ratio came out at 1.02 ± 0.028.

With TTTTTAGACT, the switch fluorescence ratio turned out to be 1 ± 0.038.

TTGGACATGG: the switch fluorescence ratio was 0.963 ± 0.012.

For ATTGCTTTGG, the switch fluorescence ratio was 0.9976 ± 0.0015.

Consider AATACATTCT, for which the switch fluorescence ratio is 1.05 ± 0.011.

As for CTTTATTTGT, the switch fluorescence ratio was 1.001 ± 0.009.

In the case of TTAGGGATGG, the switch fluorescence ratio was determined as 0.992 ± 0.023.

TTATTTTTTA: the switch fluorescence ratio was 0.993 ± 0.028.

Turning to ACTATGGAGC, the switch fluorescence ratio was 1.07 ± 0.077.

As to TGAGGAATTT, the switch fluorescence ratio was 1 ± 0.029.

For AGTCTTGCTG, the switch fluorescence ratio came out at 0.989 ± 0.02.

Consider AGGACTCCGT, for which the switch fluorescence ratio stood at 0.98 ± 0.095.

In the case of TCAGGTTTCC, the switch fluorescence ratio turned out to be 1.0249 ± 0.00069.

Regarding CGTAGTAAAT, the switch fluorescence ratio was found to be 1.062 ± 0.0087.

Take GCGTTATTTG: the switch fluorescence ratio is 0.9878 ± 0.0073.

Regarding AGGTGAAGCC, the switch fluorescence ratio amounted to 1.01 ± 0.038.

Turning to TTCAAATCGT, the switch fluorescence ratio was 0.991 ± 0.013.

For TGTATGC, the switch fluorescence ratio was 0.958 ± 0.051.

Turning to TTTACTAATA, the switch fluorescence ratio turned out to be 1.02 ± 0.014.

Regarding TTGGGAGATT, the switch fluorescence ratio amounted to 0.971 ± 0.024.

For ATGAATGAGT, the switch fluorescence ratio was 0.985 ± 0.016.

TAGTGTGTGA: the switch fluorescence ratio is 1.02 ± 0.014.

With TGGGATAGTT, the switch fluorescence ratio stood at 1.024 ± 0.0069.

Take TTTTTTTCGC: the switch fluorescence ratio is 1.01 ± 0.032.

TAATACCGTA: the switch fluorescence ratio was 1.06 ± 0.084.

As for ACCGGGCGAG, the switch fluorescence ratio came out at 1 ± 0.042.

In the case of AATCGGTTGG, the switch fluorescence ratio stood at 0.966 ± 0.019.

With TCAAGTTAGT, the switch fluorescence ratio was 0.985 ± 0.026.

Take GCCGCATGTG: the switch fluorescence ratio came to 1.28 ± 0.036.

As for AAAGGATATG, the switch fluorescence ratio worked out at 0.995 ± 0.018.

As to TTGGTAGTCT, the switch fluorescence ratio was 1.04 ± 0.012.

With ATAAGGAGTA, the switch fluorescence ratio came to 1 ± 0.016.

On to CTGGTCGGGC, for which the switch fluorescence ratio stood at 0.982 ± 0.012.

Consider GGACACTGGT, for which the switch fluorescence ratio is 1.06 ± 0.041.

In the case of TCATTTTTAC, the switch fluorescence ratio stood at 1.049 ± 0.0072.

As for AGGGGTGCCG, the switch fluorescence ratio amounted to 1.05 ± 0.026.
